Assay results from patent US10428140B2, “Anti-EphA4 antibody” (EISAI R&D MANAGEMENT CO., LTD., priority 2015, dated 2019).
Numbering of substitutions follows the chain as printed.

T1: human EphA6 (Homo sapiens, UniProt Q9UF33)
T1 construct: a protein of the extracellular region of each human Eph receptor fused with the SEAP protein and the His tag; made in house; host or cells: Expi293F cells (culture supernatant)
T1 sequence (Q9UF33 23-550 limits assumed): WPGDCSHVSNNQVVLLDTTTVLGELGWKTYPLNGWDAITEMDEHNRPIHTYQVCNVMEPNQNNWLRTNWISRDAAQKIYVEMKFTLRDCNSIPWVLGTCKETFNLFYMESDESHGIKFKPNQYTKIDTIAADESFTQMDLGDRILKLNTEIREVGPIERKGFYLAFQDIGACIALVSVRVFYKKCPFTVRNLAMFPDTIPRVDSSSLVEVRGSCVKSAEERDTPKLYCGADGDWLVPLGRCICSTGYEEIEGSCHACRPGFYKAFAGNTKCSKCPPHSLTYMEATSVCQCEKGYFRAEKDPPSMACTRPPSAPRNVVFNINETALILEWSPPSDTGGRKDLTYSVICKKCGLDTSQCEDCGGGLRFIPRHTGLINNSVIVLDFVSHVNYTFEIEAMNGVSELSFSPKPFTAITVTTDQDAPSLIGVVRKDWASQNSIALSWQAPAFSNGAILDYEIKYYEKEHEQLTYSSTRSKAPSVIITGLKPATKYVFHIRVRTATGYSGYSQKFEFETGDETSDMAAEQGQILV

T2: human EphA10 (Homo sapiens, UniProt Q5JZY3)
T2 construct: a protein of the extracellular region of each human Eph receptor fused with the SEAP protein and the His tag; made in house; host or cells: Expi293F cells (culture supernatant)
T2 sequence (Q5JZY3 34-565 limits assumed): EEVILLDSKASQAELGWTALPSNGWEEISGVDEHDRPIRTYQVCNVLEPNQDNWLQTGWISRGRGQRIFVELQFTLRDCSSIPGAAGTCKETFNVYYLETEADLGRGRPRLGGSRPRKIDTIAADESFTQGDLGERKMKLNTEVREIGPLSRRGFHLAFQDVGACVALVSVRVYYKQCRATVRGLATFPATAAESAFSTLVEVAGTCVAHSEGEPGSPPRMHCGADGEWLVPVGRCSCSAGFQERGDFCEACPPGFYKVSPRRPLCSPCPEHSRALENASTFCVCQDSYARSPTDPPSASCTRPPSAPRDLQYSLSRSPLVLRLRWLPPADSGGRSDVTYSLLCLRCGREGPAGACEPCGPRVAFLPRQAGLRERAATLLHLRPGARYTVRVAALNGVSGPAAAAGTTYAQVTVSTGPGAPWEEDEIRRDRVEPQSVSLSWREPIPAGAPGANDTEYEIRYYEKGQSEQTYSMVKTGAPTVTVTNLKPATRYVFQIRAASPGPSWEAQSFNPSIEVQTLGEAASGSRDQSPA

T3: human EphA7 (Homo sapiens, UniProt Q15375)
T3 construct: a protein of the extracellular region of each human Eph receptor fused with the SEAP protein and the His tag; made in house; host or cells: Expi293F cells (culture supernatant)
T3 sequence (Q15375 28-555 limits assumed): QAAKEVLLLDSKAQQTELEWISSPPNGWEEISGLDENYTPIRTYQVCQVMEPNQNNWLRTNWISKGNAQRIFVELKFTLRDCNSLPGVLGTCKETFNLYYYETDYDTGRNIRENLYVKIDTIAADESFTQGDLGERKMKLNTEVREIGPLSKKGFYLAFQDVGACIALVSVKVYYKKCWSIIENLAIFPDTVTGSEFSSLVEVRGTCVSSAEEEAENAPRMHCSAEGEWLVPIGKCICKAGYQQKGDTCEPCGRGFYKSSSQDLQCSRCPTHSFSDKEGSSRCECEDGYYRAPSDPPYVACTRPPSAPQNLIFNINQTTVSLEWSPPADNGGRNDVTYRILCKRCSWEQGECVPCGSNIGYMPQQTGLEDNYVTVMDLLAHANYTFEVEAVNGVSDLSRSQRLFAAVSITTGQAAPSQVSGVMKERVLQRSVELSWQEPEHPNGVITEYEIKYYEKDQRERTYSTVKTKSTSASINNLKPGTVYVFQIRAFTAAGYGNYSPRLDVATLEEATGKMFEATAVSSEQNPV

B1: 139 (antibody)
VH: QVQLVQSGSELKKPGASVKVSCKASGYTFTDYSMHWVRQAPGQGLEWMGWINTETGEPTYAQGFTGRFVFSLDTSVSTAYLQISSLKAEDTAVYYCARIPLYYYGSRYWYFDVWGQGTTVTVSS
VL: DIQMTQSPSSLSASVGDRVTITCRASENIYRNLAWYQQKPGKAPKLLVYAATNLADGVPSRFSGSGSGTDYTLTISSLQPEDFATYYCQHFWGTPWTFGQGTKVEIK
chain: ASTKGPSVFPLAPSSRSTSESTAALGCLVKDYFPEPVTVSWNSGALTSGVHTFPAVLQSSGLYSLSSVVTVPSSNFGTQTYTCNVDHKPSNTKVDKTVERKSCVECPPCPAPPAAAPSVFLFPPKPKDTLMISRTPEVTCVVVDVSHEDPEVQFNWYVDGVEVHNAKTKPREEQFNSTFRVVSVLTVVHQDWLNGKEYKCKVSNKGLPAPIEKTISKTKGQPREPQVYTLPPSREEMTKNQVSLTCLVKGFYPSDIAVEWESNGQPENNYKTTPPMLDSDGSFFLYSKLTVDKSRWQQGNVFSCSVMHEALHNHYTQKSLSLSPG
modifications: synthetic humanized antibody heavy chain variable region sequence; synthetic humanized antibody light chain variable region sequence; synthetic antibody constant region sequence
B2: 153 (antibody, V domains shown)
VH: B1 VH with E46K
VL: B1 VL with V48L, P80S
modifications: synthetic humanized antibody heavy chain variable region sequence; synthetic humanized antibody light chain variable region sequence
B3: 152 (antibody, V domains shown)
VH: B1 VH
VL: B1 VL with V48L, P80S
modifications: synthetic humanized antibody heavy chain variable region sequence; synthetic humanized antibody light chain variable region sequence
B4: 138 (antibody, V domains shown)
VH: B1 VH with V2I, E46K
VL: B1 VL
modifications: synthetic humanized antibody heavy chain variable region sequence; synthetic humanized antibody light chain variable region sequence
B5: 142 (antibody, V domains shown)
VH: B1 VH with E46K, Q62D, G63D, T65K
VL: B1 VL
modifications: synthetic humanized antibody heavy chain variable region sequence; synthetic humanized antibody light chain variable region sequence
B6: 143 (antibody, V domains shown)
VH: B1 VH with V2I, E46K, Q62D, G63D, T65K
VL: B1 VL
modifications: synthetic humanized antibody heavy chain variable region sequence; synthetic humanized antibody light chain variable region sequence
B7: 151 (antibody, V domains shown)
VH: B1 VH with V2I, E46K
VL: B1 VL with V48L, P80S
modifications: synthetic humanized antibody heavy chain variable region sequence; synthetic humanized antibody light chain variable region sequence
B8: 141 (antibody, V domains shown)
VH: B1 VH with Q62D, G63D, T65K
VL: B1 VL
modifications: synthetic humanized antibody heavy chain variable region sequence; synthetic humanized antibody light chain variable region sequence
B9: 154 (antibody, V domains shown)
VH: B1 VH with Q62D, G63D, T65K
VL: B1 VL with V48L, P80S
modifications: synthetic humanized antibody heavy chain variable region sequence; synthetic humanized antibody light chain variable region sequence
B10: 140 (antibody, V domains shown)
VH: B1 VH with E46K
VL: B1 VL
modifications: synthetic humanized antibody heavy chain variable region sequence; synthetic humanized antibody light chain variable region sequence

What follows are molecules tested against T1, human EphA6 (assay: Selectivity ELISA of humanized antibodies for human Eph receptor). Conditions: coated protein 1 nM.
Type: binding
Procedure, shortened: (§1)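 Human Eph ECD-SEAP-His fusions, harvested after 5 days of Expi293F expression, are captured on anti-His-coated wells (1 nM final). Bound humanized antibody is detected with HRP anti-IgG and TMB at 450 nm.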

hEphA6-SEAP-: absorbance at 450 nm, percentage with respect to hEphA4-SEAP-His as 100% [%]	Molecule
10.0	B1
8.7	B2
8.3	B3
10.2	B4
9.7	B5
9.9	B6
9.9	B7
9.0	B8
8.4	B9
10.8	B10

The molecules below were run against T2, human EphA10 in the same assay as above. Conditions: coated protein 1 nM.
Type: binding
Procedure, shortened: as §1

hEphA10-SEAP-: absorbance at 450 nm, percentage with respect to hEphA4-SEAP-His as 100% [%]	Molecule
5.5	B1
6.0	B2
5.8	B3
5.0	B4
5.4	B5
5.2	B6
6.6	B7
5.2	B8
5.9	B9
5.2	B10

The molecules below were run against T3, human EphA7 in the same assay as above. Conditions: coated protein 1 nM.
Type: binding
Procedure, shortened: as §1

hEphA7-SEAP-: absorbance at 450 nm, percentage with respect to hEphA4-SEAP-His as 100% [%]	Molecule
5.5	B1
6.2	B2
5.7	B3
4.9	B4
5.5	B5
5.8	B6
6.8	B7
5.3	B8
6.3	B9
5.2	B10

What follows are molecules tested against T4, human EphA2 (Homo sapiens, UniProt P29317) in the same assay as above. Conditions: coated protein 1 nM.
T4 construct: a protein of the extracellular region of each human Eph receptor fused with the SEAP protein and the His tag; made in house; host or cells: Expi293F cells (culture supernatant)
T4 sequence (P29317 24-537 limits assumed): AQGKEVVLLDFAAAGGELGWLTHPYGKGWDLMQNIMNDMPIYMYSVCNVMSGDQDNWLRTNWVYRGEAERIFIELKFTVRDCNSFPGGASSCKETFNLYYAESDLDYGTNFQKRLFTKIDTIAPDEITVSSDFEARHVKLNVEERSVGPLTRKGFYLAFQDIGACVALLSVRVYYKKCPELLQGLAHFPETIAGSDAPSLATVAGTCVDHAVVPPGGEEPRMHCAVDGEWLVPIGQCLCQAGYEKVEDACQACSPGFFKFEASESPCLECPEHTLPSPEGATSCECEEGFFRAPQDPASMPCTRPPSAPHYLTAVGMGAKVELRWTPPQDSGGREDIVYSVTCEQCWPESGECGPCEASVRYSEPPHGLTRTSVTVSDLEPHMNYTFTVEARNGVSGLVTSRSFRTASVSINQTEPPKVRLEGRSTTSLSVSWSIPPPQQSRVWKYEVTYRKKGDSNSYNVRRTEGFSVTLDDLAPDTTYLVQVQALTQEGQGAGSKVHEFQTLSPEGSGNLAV
Type: binding
Procedure, shortened: as §1

hEphA2-SEAP-: absorbance at 450 nm, percentage with respect to hEphA4-SEAP-His as 100% [%]	Molecule
5.9	B1
6.0	B2
5.8	B3
5.0	B4
5.6	B5
5.7	B6
6.9	B7
5.2	B8
6.2	B9
5.3	B10
